Data published in US20240043533A1 (NGM BIOPHARMACEUTICALS, published 2024).

T1: extracellular domain of cyno ILT3 (cynoILT3-ECD) (cynomolgus monkey)
T1 chain: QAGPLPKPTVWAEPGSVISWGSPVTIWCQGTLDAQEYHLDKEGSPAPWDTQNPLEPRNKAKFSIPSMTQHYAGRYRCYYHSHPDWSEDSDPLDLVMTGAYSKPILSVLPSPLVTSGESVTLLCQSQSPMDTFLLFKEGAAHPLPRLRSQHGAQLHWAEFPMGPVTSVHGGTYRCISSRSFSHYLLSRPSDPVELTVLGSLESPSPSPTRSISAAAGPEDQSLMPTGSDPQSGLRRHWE


What was measured:
[1] = biological target: T2, extracellular domain of human ILT3 (huILT3-ECD) (human, UniProt Q8NHJ6 22-259); assay: SPR (Biacore), antibody captured via anti-Fc on CM5 chip, soluble ILT3-ECD injected
T2 construct: also called human ILT3-ECD
Procedure: (§1) The binding affinities of anti-ILT3 antibodies to human ILT3 and cyno ILT3 were measured using a Biacore system (GE Healthcare LifeSciences). Briefly, anti-Fc antibody (Sigma-Aldrich) was immobilized on all four flow cells of a CM5 chip using amine coupling reagents (GE Healthcare LifeSciences). Antibodies were captured on flow cells 2, 3, and 4 using flow cell 1 as a reference. Concentrations ranging from 3.3-10 nM of human or cyno ILT3-ECD were injected at a flow rate of 50 μL/min at 37° C. Kinetic data were collected over time and fit using the simultaneous global fit equation to yield affinity constants (KD values) for each antibody.
(§2) The binding affinities of various Hz48A6 and Hz45G10 antibodies to human ILT3 and cyno ILT3 were also determined using a Biacore system as described herein. Humanized antibodies comprising various combinations of a heavy chain variable region and a light chain variable region and a human Fc domain were tested, and compared with the binding affinity of the parental chimeric antibody (48A6 chimera comprising mouse 48A6 heavy and light variable regions and a human Fc domain, or 45G10 chimera comprising mouse 45G10 heavy and light variable regions and a human Fc domain).

[2] = biological target: T1, extracellular domain of cyno ILT3 …; assay: as above
Procedure: as §1, §2

| Binder | Kd [1] [nM] | koff [1] [s⁻¹] | kon [1] [M⁻¹ s⁻¹] | Kd [2] [nM] | koff [2] [s⁻¹] | kon [2] [M⁻¹ s⁻¹] |
| --- | --- | --- | --- | --- | --- | --- |
| Hz48A6 C1/C2 (antibody, V domains shown) VH: EVQLVESGGGLVQPGGSLRLSCAASGFTFSSYGMSWVRQAPGKGLEWVATISSGGTYTFYPDSVKGRFTISRDNSKNTLYLQMNSLRAEDTAVYYCARRGWLLHYYAMDYWGQGTLVTVSS VL: DIQLTQSPSFLSASVGDRVTITCRPSESVDSFGNSFMHWFQQKPGKAPKLLIYLSSKLESGVPSRFSGSGSGTEFTLTISSLQPEDFATYYCQQHNEDPFTFGQGTKVEIK | 0.26 | 0.000705 | 2.72e+06 | 770 | 0.088 | 114000 |
| Hz48A6 C2/C2 (antibody, V domains shown) VH: EVQLVESGGGLMQPGGSLRLSCAASGFTFSSYGMSWVRQAPGKGLEWVATISSGGTYTFYPDSVKGRFTISRDNSKNTLYLQMNSLRAEDTAVYYCARRGWLLHYYAMDYWGQGTLVTVSS VL: DIQLTQSPSFLSASVGDRVTITCRPSESVDSFGNSFMHWFQQKPGKAPKLLIYLSSKLESGVPSRFSGSGSGTEFTLTISSLQPEDFATYYCQQHNEDPFTFGQGTKVEIK | 0.24 | 0.000752 | 3.06e+06 | 377 | 0.082 | 217000 |
| Hz48A6 B1/C2 (antibody, V domains shown) VH: EVQLVESGGGLMQPGGSLRLSCAASGFTFSSYGMSWVRQAPGKGLEWVATISSGGTYTFYPDSVKGRFTISRDNAKNSLYLQMNSLRAEDTAVYYCARRGWLLHYYAMDYWGQGTSVTVSS VL: DIQLTQSPSFLSASVGDRVTITCRPSESVDSFGNSFMHWFQQKPGKAPKLLIYLSSKLESGVPSRFSGSGSGTEFTLTISSLQPEDFATYYCQQHNEDPFTFGQGTKVEIK | 0.25 | 0.000764 | 3.05e+06 | 531 | 0.092 | 174000 |
| Hz48A6 B0/C2 (antibody, V domains shown) VH: EVQLVESGGGLVQPGGSLRLSCAASGFTFSSYGMSWVRQAPGKGLEWVATISSGGTYTFYPDSVKGRFTISRDNAKNSLYLQMNSLRAEDTAVYYCARRGWLLHYYAMDYWGQGTSVTVSS VL: DIQLTQSPSFLSASVGDRVTITCRPSESVDSFGNSFMHWFQQKPGKAPKLLIYLSSKLESGVPSRFSGSGSGTEFTLTISSLQPEDFATYYCQQHNEDPFTFGQGTKVEIK | 0.28 | 0.000784 | 2.8e+06 | 455 | 0.097 | 213000 |

Now those with a lower Kd [1], led by results:

| Kd [1] [nM] | koff [1] [s⁻¹] | kon [1] [M⁻¹ s⁻¹] | Kd [2] [nM] | koff [2] [s⁻¹] | kon [2] [M⁻¹ s⁻¹] | Binder |
| --- | --- | --- | --- | --- | --- | --- |
| 0.16 | 0.000541 | 3.45e+06 | 177 | 0.058 | 327000 | Hz48A6 C0/C2 (antibody, V domains shown) VH: EVQLVESGGGLVQPGGSLRLSCAASGFTFSSYGMSWVRQAPGKGLEWVGTISSGGTYTFYPDSVKGRFTISRDNSKNTLYLQMNSLRAEDTAVYYCARRGWLLHYYAMDYWGQGTLVTVSS VL: DIQLTQSPSFLSASVGDRVTITCRPSESVDSFGNSFMHWFQQKPGKAPKLLIYLSSKLESGVPSRFSGSGSGTEFTLTISSLQPEDFATYYCQQHNEDPFTFGQGTKVEIK |
| 0.14 | 0.00034 | 2.3e+06 | 37 | 0.015 | 410000 | 45G10 chimera (antibody, V domains shown, also called parental chimeric 45G10) VH: EVQLVESGGGLVKPGGSLKLSCAASGFTFSDYGMHWVRQAPEKGLEWVAYIFSGSSTIYYADTVKGRFTISRDNAKNTLFLQMTSLRSEDTAMYYCARADGRGAMDYWGQGTSVTVSS VL: DVQMTQTTSSLSASLGDRVTISCRASQDISKFLNWYQQKPDGTVTLLIYYTSRLHSGVPSRFSGSGSGTDYSLTISNLDQEDIATYFCQQGNTLPWTFGGGTKLEIK |
| 0.2 | 0.00028 | 1.4e+06 | 113 | 0.02 | 190000 | Hz45G10 A2/A4 (antibody, V domains shown) VH: EVQLVESGGGLVQPGGSLRLSCAASGFTFSDYGMHWVRQAPGKGLEWVAYIFSGSSTIYYADTVKGRFTISRDNAKNSLYLQMNSLRAEDTAVYYCARADGRGAMDYWGQGTTVTVSS VL: DIQMTQSPSSLSASVGDRVTITCRASQDISKFLNWYQQKPGKAPKLLIYYTSRLHSGVPSRFSGSGSGTDFTFTISSLQPEDIATYFCQQGNTLPWTFGGGTKLEIK |
